US20160106861A1, “AXL ANTIBODY-DRUG CONJUGATE AND ITS USE FOR THE TREATMENT OF CANCER” (PIERRE FABRE MEDICAMENT, priority 2013, published 2016)

Molecular target: T1, rhAxl-Fc protein (Homo sapiens, UniProt P30530)
T1 construct: purchased R and D Systems 154AL/CF
T1 sequence (P30530 26-451 limits assumed): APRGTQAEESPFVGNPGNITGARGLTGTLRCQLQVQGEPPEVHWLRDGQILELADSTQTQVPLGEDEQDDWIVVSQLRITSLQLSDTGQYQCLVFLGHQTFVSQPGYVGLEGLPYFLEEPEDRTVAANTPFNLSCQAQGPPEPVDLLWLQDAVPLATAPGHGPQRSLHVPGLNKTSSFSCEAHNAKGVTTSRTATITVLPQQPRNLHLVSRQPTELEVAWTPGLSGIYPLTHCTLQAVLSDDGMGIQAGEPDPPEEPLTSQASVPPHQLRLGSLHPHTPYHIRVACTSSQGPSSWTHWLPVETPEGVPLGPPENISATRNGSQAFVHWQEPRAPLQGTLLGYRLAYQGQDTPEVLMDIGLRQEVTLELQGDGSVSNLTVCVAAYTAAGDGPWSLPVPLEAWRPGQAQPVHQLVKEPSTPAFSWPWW
Assay: ELISA with coated 1613F12 and a range of rhAxl-Fc protein (hz vs. m)
Type: binding
Details: FIG. 3
Protocol: In this assay, 96 well plates (Immulon II, Thermo Fisher) were coated with a 5 μg/ml of 1613F12 solution in 1×PBS, overnight at 4° C. After a saturation step, a range of rh Axl-Fc protein (R and D Systems, ref: 154-AL) is incubated for 1 hour at 37° C. on the coated plates. For the revelation step, a biotinylated-Axl antibody (in house product) was added at 0.85 μg/ml for 1 hour at 37° C. This Axl antibody belongs to a distinct epitopic group. Then an avidin-horseradish peroxidase solution at 1/2000° in diluent buffer is added to the wells. Then the TMB substrate solution is added for 5 min. After addition of the peroxydase stop solution, the absorbance at […] was measured with a microplate reader.

binding of rhAxl-Fc protein, murine versus humanized version: bind similarly the rhAxl-Fc protein
B1: hz1613F12: humanized Axl antibody 1613F12 (antibody, V domains shown)
VH: QVQLVQSGAEVKKPGASVKVSCKASGFNIRDTYMHWVRQAPGQGLEWMGRLDPANGHTKYAQKFQGRVTMTRDTSISTAYMELSRLRSDDTAVYYCARGAYYYGSSGLFYFDYWGQGTLVTVSS
VL: DVQMTQSPSSLSASVGDRVTITCRASKSISKYLAWYQQKPGKVPKLLIYSGSTLQSGVPSRFSGSGSGTDFTLTISSLQPEDVATYYCQQHHEYPLTFGGGTKVEIK
modifications: Hz1613F12 VH - Consensus 2; Hz1613F12 VL - Consensus 2
notes: humanized Axl antibody 1613F12
